Among the data in publication PMC11909739 are percent of KS3AT3 homodimer particles with one ACP (% of particles), percent of KS3AT3 homodimer particles with two ACPs (% of particles) and percent of KS3AT3 homodimer particles with zero ACPs (% of particles) values, retold here.

The experiment concerns the target KS3AT3 (homodimeric KS-AT didomain fragment of DEBS module 3). Nature of the experiment: cryo-EM structure.

In turn, “ACP3 (standalone acyl carrier protein of DEBS module 3), holo form (domain or fragment)” came in with a percent of KS3AT3 homodimer particles with one ACP (% of particles) of 50.3, a percent of KS3AT3 homodimer particles with two ACPs (% of particles) of 24.7 and a percent of KS3AT3 homodimer particles with zero ACPs (% of particles) of 25.
